From paper PMC10033377 (Nature structural & molecular biology, 2023)
Residue numbers refer to the chain shown, from its start. Numbers in names are those of the source.

B1: PRPS1-D52H (enzyme, human)
chain: MPNIKIFSGSSHQDLSQKIADRLGLELGKVVTKKFSNQETCVEIGESVRGEHVYIVQSGCGEINDNLMELLIMINACKIASASRVTAVIPCFPYARQDKKDKSRAPISAKLVANMLSVAGADHIITMDLHASQIQGFFDIPVDNLYAEPAVLKWIRENISEWRNCTIVSPDAGGAKRVTSIADRLNVDFALIHKERKKANEVDRMVLVGDVKDRVAILVDDMADTCGTICHAADKLLSAGATRVYAILTHGIFSGPAISRINNACFEAVVVTNTIPQEDKMKHCSKIQVIDISMILAEAIRRTHNGESVSYLFSHVPL
B2: PRPS1-I290T (enzyme, human)
chain: B1 chain with H52D, I290T
B3: PRPS1-V309F (enzyme, human)
chain: B1 chain with H52D, V309F
B4: PRPS1-S16P (enzyme, human)
chain: B1 chain with S16P, H52D

Tests used:
SEC = target: the molecule itself; assay: SEC
negative stain EM = target: the molecule itself; assay: negative stain EM

Protein	binding result (SEC)	binding result (negative stain EM)
B1	binds	
B2		binds
B3		binds
B4		binds
